For data set [1], the system named is VchCAST RNA-guided transposition machinery (E. coli BL21(DE3) host, lacZ target). The experiment in a line: relative integration efficiency (T-LR orientation) vs wild-type transposon end (log2 (normalized fold change)); transposon end mutated: right end (5 bp flank + 75 bp right end); higher = more efficient transposition. The gist of the method: (§1)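 In E. coli BL21(DE3), a T7-driven effector plasmid was paired with a pUC57 mini-transposon donor containing 1549 left-end or 1849 right-end barcoded transposon variants. Cells grew on plates with 0.1 mM IPTG at 37°C for 18 h. Relative integration efficiency was derived from Illumina reads of genomic integration junctions against input plasmids, as a log-transformed output/input barcode fold change normalised to reference barcodes.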

Data set [2] shares this test system. The experiment in a line: relative integration efficiency (T-RL orientation) vs wild-type transposon end (log2 (normalized fold change)); transposon end mutated: right end (5 bp flank + 75 bp right end); higher = more efficient transposition. In outline: as §1

± gives the standard deviation of the averaged measurements.

Consider “ACATTTGTCGATACAACCATAAAATGATAATTACCACCCATACATTGATAATTATCACACCCATTTAACTATAACGCTCTGATCATAGTCAGACCAACATTGCTACGACCCGTATTCGCACCGACAC”, for which the “relative integration efficiency (log2)” value is 0.0639 ± 0.32 in data set [1] and -2.37 ± 0.32 in data set [2].

In the case of “ACATTTGTCGATACAACCATAAAATGATAATTACCACCCCTAAATTGATAATTATCACACCCATTTAACTATAACGCTCTGATCATAGTCAGACCAACATTGCTACGACCCGTATTCGCACCGACAC”, the “relative integration efficiency (log2)” value is -0.156 ± 0.26 in data set [1] and -3.12 ± 0.048 in data set [2].

Take “ACATTTGTCGATACAACCATAAAATGATAATTACCACCCCTACATTGATAATTATCACACCCATTTAACTATAACGCTCTGATCATAGTCAGACCAACATTGCTACGACCCGTATTCGCACCGACAC”: the “relative integration efficiency (log2)” value in data set [1] was -0.393 ± 0.058; in data set [2] it was -3.06 ± 0.23.

Turning to “ACATTTGTCGATACAACCATAAAATGATAATTCACCCATAAATTGATAATTATCACACCCCAATTTAACTATAACGCTCTGATCATAGTCAGACCAACATTGCTACGACCCGTATTCGCACCGACAC”, the “relative integration efficiency (log2)” value was 1.05 ± 0.034 in data set [1] and -2.26 ± 0.28 in data set [2].

For “ACATTTGTCGATACAACCATAAAATGATAATTCACCCATCAATTGATAATTATCACACCCCAATTTAACTATAACGCTCTGATCATAGTCAGACCAACATTGCTACGACCCGTATTCGCACCGACAC”, the “relative integration efficiency (log2)” value in data set [1] is 0.029 ± 0.092; in data set [2], -3.3 ± 0.52.

For “ACATTTGTCGATACAACCCTAAAATGATAATTACACCCATAAATGGATAATTATCACACCCAATTTAACTATAACGCTCTGATCATAGTCAGACCAACATTGCTACGACCCGTATTCGCACCGACAC”, the results for the “relative integration efficiency (log2)” value in data set [1] and in data set [2] were -0.544 ± 0.14 and -3.17 ± 0.19, respectively.

Turning to “ACATTTGTCGATACAACCCTAAAATGATAATTACACCCATAAATGGATAATTATCACCCCCAATTTAACTATAACGCTCTGATCATAGTCAGACCAACATTGCTACGACCCGTATTCGCACCGACAC”, the “relative integration efficiency (log2)” value in data set [1] was -1.16 ± 0.21; in data set [2], -3.44 ± 0.12.

Regarding “ACATTTGTCGATACAACCCTAAAATGATAATTACACCCATAAATGGATCATTATCACACCCAATTTAACTATAACGCTCTGATCATAGTCAGACCAACATTGCTACGACCCGTATTCGCACCGACAC”, the results for the “relative integration efficiency (log2)” value in data set [1] and in data set [2] were -1.24 ± 0.25 and -4.03 ± 0.13, respectively.

In the case of “ACATTTGTCGATACAACCCTAAAATGATAATTACACCCATAAATGGATCATTATCACCCCCAATTTAACTATAACGCTCTGATCATAGTCAGACCAACATTGCTACGACCCGTATTCGCACCGACAC”, the results for the “relative integration efficiency (log2)” value in data set [1] and in data set [2] were -1.4 ± 0.051 and -4.03 ± 0.42, respectively.

“ACATTTGTCGATACAACCCTAAAATGATAATTACACCCATAAATTCATAATTATCACACCCAATTTAACTATAACGCTCTGATCATAGTCAGACCAACATTGCTACGACCCGTATTCGCACCGACAC”: the “relative integration efficiency (log2)” value was -2.19 ± 0.3 in data set [1] and -4.55 ± 0.13 in data set [2].

As for “ACATTTGTCGATACAACCCTAAAATGATAATTACACCCATAAATTCATAATTATCACCCCCAATTTAACTATAACGCTCTGATCATAGTCAGACCAACATTGCTACGACCCGTATTCGCACCGACAC”, the “relative integration efficiency (log2)” value is -1.84 ± 0.085 in data set [1] and -4.67 ± 0.055 in data set [2].

Consider “ACATTTGTCGATACAACCCTAAAATGATAATTACACCCATAAATTCATCATTATCACACCCAATTTAACTATAACGCTCTGATCATAGTCAGACCAACATTGCTACGACCCGTATTCGCACCGACAC”, for which the results for the “relative integration efficiency (log2)” value in data set [1] and in data set [2] were -1.06 ± 0.37 and -4.888 ± 0.035, respectively.

Regarding “ACATTTGTCGATACAACCCTAAAATGATAATTACACCCATAAATTCATCATTATCACCCCCAATTTAACTATAACGCTCTGATCATAGTCAGACCAACATTGCTACGACCCGTATTCGCACCGACAC”, the “relative integration efficiency (log2)” value is -1.16 ± 0.18 in data set [1] and -4.56 ± 0.18 in data set [2].

Consider “ACATTTGTCGATACAACCCTAAAATGATAATTACACCCATAAATTGATAATTATCACACCCAATTTAACTATAACGCTCTGATCATAGTCAGACCAACATTGCTACGACCCGTATTCGCACCGACAC”, for which the “relative integration efficiency (log2)” value in data set [1] was 1.04 ± 0.3; in data set [2] it was -2.1 ± 0.33.

As for “ACATTTGTCGATACAACCCTAAAATGATAATTACACCCATAAATTGATAATTATCACCCCCAATTTAACTATAACGCTCTGATCATAGTCAGACCAACATTGCTACGACCCGTATTCGCACCGACAC”, the “relative integration efficiency (log2)” value in data set [1] was 0.88 ± 0.35; in data set [2], -2.33 ± 0.4.

In the case of “ACATTTGTCGATACAACCCTAAAATGATAATTACACCCATAAATTGATCATTATCACACCCAATTTAACTATAACGCTCTGATCATAGTCAGACCAACATTGCTACGACCCGTATTCGCACCGACAC”, the “relative integration efficiency (log2)” value in data set [1] is 0.178 ± 0.16; in data set [2], -3 ± 0.31.

As for “ACATTTGTCGATACAACCCTAAAATGATAATTACACCCATAAATTGATCATTATCACCCCCAATTTAACTATAACGCTCTGATCATAGTCAGACCAACATTGCTACGACCCGTATTCGCACCGACAC”, the “relative integration efficiency (log2)” value in data set [1] is 0.684 ± 0.37; in data set [2], -2.5 ± 0.47.

Turning to “ACATTTGTCGATCCAACCATAAAATGATAATTACACCCATAAATGGATAATTATCACACCCAATTTAACTATAACGCTCTGATCATAGTCAGACCAACATTGCTACGACCCGTATTCGCACCGACAC”, the “relative integration efficiency (log2)” value in data set [1] is 1.38 ± 0.094; in data set [2] it was -1.4 ± 0.23.

Take “ACATTTGTCGATCCAACCATAAAATGATAATTACACCCATAAATGGATCATTATCACACCCAATTTAACTATAACGCTCTGATCATAGTCAGACCAACATTGCTACGACCCGTATTCGCACCGACAC”: the “relative integration efficiency (log2)” value is 0.888 ± 0.17 in data set [1] and -2.08 ± 0.19 in data set [2].

As to “ACATTTGTCGATCCAACCATAAAATGATAATTACACCCATAAATTCATAATTATCACACCCAATTTAACTATAACGCTCTGATCATAGTCAGACCAACATTGCTACGACCCGTATTCGCACCGACAC”, the “relative integration efficiency (log2)” value is 0.641 ± 0.68 in data set [1] and -2.45 ± 0.51 in data set [2].

As for “ACATTTGTCGATCCAACCATAAAATGATAATTACACCCATAAATTCATCATTATCACACCCAATTTAACTATAACGCTCTGATCATAGTCAGACCAACATTGCTACGACCCGTATTCGCACCGACAC”, the “relative integration efficiency (log2)” value in data set [1] was 1.38 ± 0.015; in data set [2], -2.47 ± 0.39.

For the sequence “ACATTTGTCGATCCAACCATAAAATGATAATTACACCCATAAATTGATAATTATCACACCCAATTTAACTATAACGCTCTGATCATAGTCAGACCAACATTGCTACGACCCGTATTCGCACCGACAC”, the “relative integration efficiency (log2)” value was 2.2 ± 0.23 in data set [1] and -0.969 ± 0.28 in data set [2].

“ACATTTGTCGATCCAACCATAAAATGATAATTACACCCATAAATTGATCATTATCACACCCAATTTAACTATAACGCTCTGATCATAGTCAGACCAACATTGCTACGACCCGTATTCGCACCGACAC”: the “relative integration efficiency (log2)” value is 2.167 ± 0.0082 in data set [1] and -1.61 ± 0.25 in data set [2].

As for “ACATTTGTGGATACAACCATAAAACGATAATTACACCCATAAATGGATAATTATCACACCCAATTTAACTATAACGCTCTGATCATAGTCAGACCAACATTGCTACGACCCGTATTCGCACCGACAC”, the “relative integration efficiency (log2)” value was 1.3 ± 0.17 in data set [1] and -1.46 ± 0.2 in data set [2].

Consider “ACATTTGTGGATACAACCATAAAACGATAATTACACCCATAAATGGATCATTATCACACCCAATTTAACTATAACGCTCTGATCATAGTCAGACCAACATTGCTACGACCCGTATTCGCACCGACAC”, for which the “relative integration efficiency (log2)” value is 0.737 ± 0.25 in data set [1] and -1.81 ± 0.3 in data set [2].

Regarding “ACATTTGTGGATACAACCATAAAACGATAATTACACCCATAAATTCATAATTATCACACCCAATTTAACTATAACGCTCTGATCATAGTCAGACCAACATTGCTACGACCCGTATTCGCACCGACAC”, the results for the “relative integration efficiency (log2)” value in data set [1] and in data set [2] were 0.933 ± 0.13 and -2.15 ± 0.21, respectively.

Regarding “ACATTTGTGGATACAACCATAAAACGATAATTACACCCATAAATTCATCATTATCACACCCAATTTAACTATAACGCTCTGATCATAGTCAGACCAACATTGCTACGACCCGTATTCGCACCGACAC”, the “relative integration efficiency (log2)” value in data set [1] is 1.17 ± 0.22; in data set [2], -2.23 ± 0.37.

Take “ACATTTGTGGATACAACCATAAAACGATAATTACACCCATAAATTGATAATTATCACACCCAATTTAACTATAACGCTCTGATCATAGTCAGACCAACATTGCTACGACCCGTATTCGCACCGACAC”: the “relative integration efficiency (log2)” value was 2.04 ± 0.26 in data set [1] and -1.13 ± 0.22 in data set [2].

In the case of “ACATTTGTGGATACAACCATAAAACGATAATTACACCCATAAATTGATCATTATCACACCCAATTTAACTATAACGCTCTGATCATAGTCAGACCAACATTGCTACGACCCGTATTCGCACCGACAC”, the “relative integration efficiency (log2)” value in data set [1] was 2.1 ± 0.088; in data set [2], -1.43 ± 0.24.

For “ACATTTGTGGATACAACCATAAAATGATAATTACACCCATAAATGGATAATTATCACACCCAATTTAACTATAACGCTCTGATCATAGTCAGACCAACATTGCTACGACCCGTATTCGCACCGACAC”, the “relative integration efficiency (log2)” value is 2.14 ± 0.031 in data set [1] and -0.586 ± 0.33 in data set [2].

Regarding “ACATTTGTGGATACAACCATAAAATGATAATTACACCCATAAATGGATAATTATCACCCCCAATTTAACTATAACGCTCTGATCATAGTCAGACCAACATTGCTACGACCCGTATTCGCACCGACAC”, the figures for the “relative integration efficiency (log2)” value in data set [1] and in data set [2] were 1.55 ± 0.31 and -1.15 ± 0.23, respectively.

Take “ACATTTGTGGATACAACCATAAAATGATAATTACACCCATAAATGGATCATTATCACACCCAATTTAACTATAACGCTCTGATCATAGTCAGACCAACATTGCTACGACCCGTATTCGCACCGACAC”: the “relative integration efficiency (log2)” value in data set [1] is 1.01 ± 0.2; in data set [2], -1.53 ± 0.23.

The values are drawn from the supplement of paper PMC10201428.
